Test results from publication doi:10.1101/2023.10.25.23297129 (medRxiv, 2023).
Residue numbers refer to the chain shown, from its start. Each block holds one binder with its values, some of them ahead of it.

Experiments:
[1] = molecular target: T1, wildtype human HMGCS1 (3-hydroxy-3-methylglutaryl-coenzyme A synthase) (human), Q01581; assay: SEC; conditions: remark: other sources report otherwise
T1 chain: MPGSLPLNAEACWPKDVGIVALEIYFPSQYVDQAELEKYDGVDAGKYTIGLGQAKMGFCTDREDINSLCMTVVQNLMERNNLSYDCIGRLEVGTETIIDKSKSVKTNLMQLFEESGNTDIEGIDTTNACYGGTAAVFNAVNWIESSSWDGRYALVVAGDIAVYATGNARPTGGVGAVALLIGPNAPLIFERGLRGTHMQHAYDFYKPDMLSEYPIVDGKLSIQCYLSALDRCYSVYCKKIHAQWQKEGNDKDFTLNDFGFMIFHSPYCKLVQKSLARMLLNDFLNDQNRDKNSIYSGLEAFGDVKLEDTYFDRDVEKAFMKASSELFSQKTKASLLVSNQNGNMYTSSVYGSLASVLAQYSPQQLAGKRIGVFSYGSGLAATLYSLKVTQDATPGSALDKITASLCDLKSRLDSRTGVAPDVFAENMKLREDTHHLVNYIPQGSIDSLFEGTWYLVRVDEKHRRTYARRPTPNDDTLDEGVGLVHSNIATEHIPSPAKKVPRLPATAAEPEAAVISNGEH

[2] = molecular target: the molecule itself; assay: SEC

stoichiometry N [1]: 2
B1: wildtype human HMGCS1 (3-hydroxy-3-methylglutaryl-coenzyme A synthase), Q01581 1-520 (enzyme)
chain: T1 chain

B2: human HMGCS1 p.Met70Thr (enzyme, UniProt Q01581 1-520, looked up)
chain: T1 chain with M70T
stoichiometry N [2]: 2

B3: human HMGCS1 p.Ser447Pro (enzyme, UniProt Q01581 1-520, looked up)
chain: T1 chain with S447P
stoichiometry N [2]: 2

B4: human HMGCS1 p.Cys268Ser (enzyme, UniProt Q01581 1-520, looked up)
chain: T1 chain with C268S
stoichiometry N [2]: 2

B5: human HMGCS1 p.Gln29Leu (enzyme, UniProt Q01581 1-520, looked up)
chain: T1 chain with Q29L
stoichiometry N [2]: 2
